The results in this text go back to patent US20220298218A1 (ANTAG THERAPEUTICS, published 2022).

*1 amine or outer side, *2 acyl side, *3 side chain or, on linkers, in order; H or OH if unused. Where no end group is shown, it is not given here. Side-chain parts run from the residue outwards. The star is where a group is joined. C18 diacid = O=C(O)CCCCCCCCCCCCCCCCC(=O)*; γGlu = O=C(O)[C@H](CCC(=O)[*:2])N[*:1]; AEEA = NCCOCCOCC(=O)O

The target of this experiment is T1, human GIP receptor (human, UniProt P48546 22-466).
T1 sequence (looked up): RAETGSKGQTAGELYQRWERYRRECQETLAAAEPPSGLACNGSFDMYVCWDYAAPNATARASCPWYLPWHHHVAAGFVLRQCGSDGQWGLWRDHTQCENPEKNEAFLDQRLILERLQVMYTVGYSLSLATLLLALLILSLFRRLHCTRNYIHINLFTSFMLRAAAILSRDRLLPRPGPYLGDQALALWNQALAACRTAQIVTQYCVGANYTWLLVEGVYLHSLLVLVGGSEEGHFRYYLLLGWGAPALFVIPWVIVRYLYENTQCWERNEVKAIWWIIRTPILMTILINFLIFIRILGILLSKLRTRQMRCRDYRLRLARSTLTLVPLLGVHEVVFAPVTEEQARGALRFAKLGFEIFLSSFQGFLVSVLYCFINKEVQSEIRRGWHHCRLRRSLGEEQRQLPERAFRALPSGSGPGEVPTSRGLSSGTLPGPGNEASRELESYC
In words: cell-based or functional assay.

B1: AT591 (peptide)
peptide: EGTFISDYSIAMDKIK([AEEA-AEEA-γGlu-C18 diacid])QQDFVNWLLAGGPSSGAPPPS-NH2
modifications: N-terminus assumed
SMILES: CC[C@H](C)[C@H](NC(=O)[C@H](CO)NC(=O)[C@H](Cc1ccc(O)cc1)NC(=O)[C@H](CC(=O)O)NC(=O)[C@H](CO)NC(=O)[C@@H](NC(=O)[C@H](Cc1ccccc1)NC(=O)[C@@H](NC(=O)CNC(=O)[C@@H](N)CCC(=O)O)[C@@H](C)O)[C@@H](C)CC)C(=O)N[C@@H](C)C(=O)N[C@@H](CCSC)C(=O)N[C@@H](CC(=O)O)C(=O)N[C@@H](CCCCN)C(=O)N[C@H](C(=O)N[C@@H](CCCCNC(=O)COCCOCCNC(=O)COCCOCCNC(=O)CC[C@H](NC(=O)CCCCCCCCCCCCCCCCC(=O)O)C(=O)O)C(=O)N[C@@H](CCC(N)=O)C(=O)N[C@@H](CCC(N)=O)C(=O)N[C@@H](CC(=O)O)C(=O)N[C@@H](Cc1ccccc1)C(=O)N[C@H](C(=O)N[C@@H](CC(N)=O)C(=O)N[C@@H](Cc1c[nH]c2ccccc12)C(=O)N[C@@H](CC(C)C)C(=O)N[C@@H](CC(C)C)C(=O)N[C@@H](C)C(=O)NCC(=O)NCC(=O)N1CCC[C@H]1C(=O)N[C@@H](CO)C(=O)N[C@@H](CO)C(=O)NCC(=O)N[C@@H](C)C(=O)N1CCC[C@H]1C(=O)N1CCC[C@H]1C(=O)N1CCC[C@H]1C(=O)N[C@@H](CO)C(N)=O)C(C)C)[C@@H](C)CC
Consider B1, for which the “cAMP agonism % Emax” value was 0%, the “cAMP antagonism” value was found to be 21.5 nM, the “cAMP antagonism % inhib” value came out at 92% and the “cAMP antagonism pIC50” value worked out at 7.7.

B2: AT592 (peptide)
peptide: EGTFISDYSIAMDKIK([AEEA-AEEA-γGlu-C18 diacid])QQDFVNWLLAGGPSSGAPPPS-OH
modifications: N-terminus assumed
SMILES: CC[C@H](C)[C@H](NC(=O)[C@H](CO)NC(=O)[C@H](Cc1ccc(O)cc1)NC(=O)[C@H](CC(=O)O)NC(=O)[C@H](CO)NC(=O)[C@@H](NC(=O)[C@H](Cc1ccccc1)NC(=O)[C@@H](NC(=O)CNC(=O)[C@@H](N)CCC(=O)O)[C@@H](C)O)[C@@H](C)CC)C(=O)N[C@@H](C)C(=O)N[C@@H](CCSC)C(=O)N[C@@H](CC(=O)O)C(=O)N[C@@H](CCCCN)C(=O)N[C@H](C(=O)N[C@@H](CCCCNC(=O)COCCOCCNC(=O)COCCOCCNC(=O)CC[C@H](NC(=O)CCCCCCCCCCCCCCCCC(=O)O)C(=O)O)C(=O)N[C@@H](CCC(N)=O)C(=O)N[C@@H](CCC(N)=O)C(=O)N[C@@H](CC(=O)O)C(=O)N[C@@H](Cc1ccccc1)C(=O)N[C@H](C(=O)N[C@@H](CC(N)=O)C(=O)N[C@@H](Cc1c[nH]c2ccccc12)C(=O)N[C@@H](CC(C)C)C(=O)N[C@@H](CC(C)C)C(=O)N[C@@H](C)C(=O)NCC(=O)NCC(=O)N1CCC[C@H]1C(=O)N[C@@H](CO)C(=O)N[C@@H](CO)C(=O)NCC(=O)N[C@@H](C)C(=O)N1CCC[C@H]1C(=O)N1CCC[C@H]1C(=O)N1CCC[C@H]1C(=O)N[C@@H](CO)C(=O)O)C(C)C)[C@@H](C)CC
As for B2, the “cAMP agonism % Emax” value was 0%, the “cAMP antagonism” value amounted to 6.31 nM, the “cAMP antagonism % inhib” value stood at 88% and the “cAMP antagonism pIC50” value is 8.2.

B3: AT590 (peptide)
peptide: EGTFISDYSIAMDKIK([AEEA-AEEA-γGlu-C18 diacid])QQDFVNWLLAQGPSSGAPPPS-NH2
modifications: N-terminus assumed
SMILES: CC[C@H](C)[C@H](NC(=O)[C@H](CO)NC(=O)[C@H](Cc1ccc(O)cc1)NC(=O)[C@H](CC(=O)O)NC(=O)[C@H](CO)NC(=O)[C@@H](NC(=O)[C@H](Cc1ccccc1)NC(=O)[C@@H](NC(=O)CNC(=O)[C@@H](N)CCC(=O)O)[C@@H](C)O)[C@@H](C)CC)C(=O)N[C@@H](C)C(=O)N[C@@H](CCSC)C(=O)N[C@@H](CC(=O)O)C(=O)N[C@@H](CCCCN)C(=O)N[C@H](C(=O)N[C@@H](CCCCNC(=O)COCCOCCNC(=O)COCCOCCNC(=O)CC[C@H](NC(=O)CCCCCCCCCCCCCCCCC(=O)O)C(=O)O)C(=O)N[C@@H](CCC(N)=O)C(=O)N[C@@H](CCC(N)=O)C(=O)N[C@@H](CC(=O)O)C(=O)N[C@@H](Cc1ccccc1)C(=O)N[C@H](C(=O)N[C@@H](CC(N)=O)C(=O)N[C@@H](Cc1c[nH]c2ccccc12)C(=O)N[C@@H](CC(C)C)C(=O)N[C@@H](CC(C)C)C(=O)N[C@@H](C)C(=O)N[C@@H](CCC(N)=O)C(=O)NCC(=O)N1CCC[C@H]1C(=O)N[C@@H](CO)C(=O)N[C@@H](CO)C(=O)NCC(=O)N[C@@H](C)C(=O)N1CCC[C@H]1C(=O)N1CCC[C@H]1C(=O)N1CCC[C@H]1C(=O)N[C@@H](CO)C(N)=O)C(C)C)[C@@H](C)CC
For the molecule B3, the “cAMP agonism % Emax” value is 0%, the “cAMP antagonism” value was 5.41 nM, the “cAMP antagonism % inhib” value was determined as 93% and the “cAMP antagonism pIC50” value amounted to 8.3.

B4: AT593 (peptide)
peptide: EGTFISDYSIAMDKIK([AEEA-AEEA-γGlu-C18 diacid])QQDFVNWLLAQPSSGAPPPS-NH2
modifications: N-terminus assumed
SMILES: CC[C@H](C)[C@H](NC(=O)[C@H](CO)NC(=O)[C@H](Cc1ccc(O)cc1)NC(=O)[C@H](CC(=O)O)NC(=O)[C@H](CO)NC(=O)[C@@H](NC(=O)[C@H](Cc1ccccc1)NC(=O)[C@@H](NC(=O)CNC(=O)[C@@H](N)CCC(=O)O)[C@@H](C)O)[C@@H](C)CC)C(=O)N[C@@H](C)C(=O)N[C@@H](CCSC)C(=O)N[C@@H](CC(=O)O)C(=O)N[C@@H](CCCCN)C(=O)N[C@H](C(=O)N[C@@H](CCCCNC(=O)COCCOCCNC(=O)COCCOCCNC(=O)CC[C@H](NC(=O)CCCCCCCCCCCCCCCCC(=O)O)C(=O)O)C(=O)N[C@@H](CCC(N)=O)C(=O)N[C@@H](CCC(N)=O)C(=O)N[C@@H](CC(=O)O)C(=O)N[C@@H](Cc1ccccc1)C(=O)N[C@H](C(=O)N[C@@H](CC(N)=O)C(=O)N[C@@H](Cc1c[nH]c2ccccc12)C(=O)N[C@@H](CC(C)C)C(=O)N[C@@H](CC(C)C)C(=O)N[C@@H](C)C(=O)N[C@@H](CCC(N)=O)C(=O)N1CCC[C@H]1C(=O)N[C@@H](CO)C(=O)N[C@@H](CO)C(=O)NCC(=O)N[C@@H](C)C(=O)N1CCC[C@H]1C(=O)N1CCC[C@H]1C(=O)N1CCC[C@H]1C(=O)N[C@@H](CO)C(N)=O)C(C)C)[C@@H](C)CC
Consider B4, for which the “cAMP agonism % Emax” value was determined as 0%, the “cAMP antagonism” value came to 63.1 nM, the “cAMP antagonism % inhib” value came to 86% and the “cAMP antagonism pIC50” value was determined as 7.2.
